Target: Glu148 (UniProt position 148, MVLGREGPTVQ)
Assay: kinetics
Conditions: membrane-reconstituted, turning over in Cl-/36Cl- exchange (Cl- present)

Question: For CLC-ec1 Y445L (Escherichia coli; Y445L), which pKa is on record?
Answer: Its pKa is 4.7±0.1.

Question: For “CLC-ec1 (H+/Cl- exchange transporter ClcA), wild type (Escherichia coli)”, which pKa is on record?
Answer: Its pKa is 6.2±0.1.

Question: CLC-ec1 E203Q (Escherichia coli; E203Q) was tested. Which pKa did it give?
Answer: Its pKa is 6.2±0.5.
